Experimental data: the Human Domainome abundance scans (Beltran et al. 2025)
± gives the uncertainty stated by the source.

Assay: abundance fitness (aPCA) (normalised: wild type 0, dead -1); higher = more abundant; growth selection in yeast, the domain comes from the species named
Conditions: Homo sapiens

Substance	abundance fitness
DnaJ homolog subfamily B member 1 R26C, P25685	0.064 ± 0.11
DnaJ homolog subfamily B member 1 E19S, P25685	-0.18 ± 0.069
DnaJ homolog subfamily B member 1 T8G, P25685	-0.469 ± 0.099
DnaJ homolog subfamily B member 1 L29V, P25685	-0.052 ± 0.076
DnaJ homolog subfamily B member 1 G10E, P25685	0.073 ± 0.2
DnaJ homolog subfamily B member 1 I20F, P25685	-0.708 ± 0.1
DnaJ homolog subfamily B member 1 L55G, P25685	-0.687 ± 0.081
DnaJ homolog subfamily B member 1 R13W, P25685	-0.434 ± 0.08
DnaJ homolog subfamily B member 1 G14C, P25685	-0.266 ± 0.12
DnaJ homolog subfamily B member 1 Y52W, P25685	0.005 ± 0.074
DnaJ homolog subfamily B member 1 E50L, P25685	-0.026 ± 0.052
DnaJ homolog subfamily B member 1 H32E, P25685	0.035 ± 0.091
DnaJ homolog subfamily B member 1 Y24L, P25685	-0.492 ± 0.061
DnaJ homolog subfamily B member 1 K21R, P25685	-0.126 ± 0.059
DnaJ homolog subfamily B member 1 V54M, P25685	-0.084 ± 0.14
DnaJ homolog subfamily B member 1 E42R, P25685	0.024 ± 0.058
DnaJ homolog subfamily B member 1 K60S, P25685	-0.216 ± 0.072
DnaJ homolog subfamily B member 1 L9W, P25685	-1.25 ± 0.17
DnaJ homolog subfamily B member 1 Y6G, P25685	-0.977 ± 0.2
DnaJ homolog subfamily B member 1 R30M, P25685	0.104 ± 0.089
DnaJ homolog subfamily B member 1 E38S, P25685	-0.106 ± 0.083
DnaJ homolog subfamily B member 1 D17A, P25685	-0.072 ± 0.096
DnaJ homolog subfamily B member 1 R61M, P25685	-0.495 ± 0.14
DnaJ homolog subfamily B member 1 A12E, P25685	-0.277 ± 0.13
DnaJ homolog subfamily B member 1 I20W, P25685	-1.42 ± 0.12
DnaJ homolog subfamily B member 1 L11K, P25685	-0.849 ± 0.19

Substance	abundance fitness
DnaJ homolog subfamily B member 1 R30F, P25685	-0.024 ± 0.089
DnaJ homolog subfamily B member 1 L55W, P25685	-0.932 ± 0.1
DnaJ homolog subfamily B member 1 K35G, P25685	-0.25 ± 0.083
DnaJ homolog subfamily B member 1 A41N, P25685	-0.164 ± 0.17
DnaJ homolog subfamily B member 1 I48Q, P25685	-0.422 ± 0.12
DnaJ homolog subfamily B member 1 I20P, P25685	-1.26 ± 0.17
DnaJ homolog subfamily B member 1 F45K, P25685	-0.444 ± 0.16
DnaJ homolog subfamily B member 1 A51I, P25685	-0.977 ± 0.17
DnaJ homolog subfamily B member 1 H32I, P25685	-0.246 ± 0.12
DnaJ homolog subfamily B member 1 E50A, P25685	-0.241 ± 0.11
DnaJ homolog subfamily B member 1 Y31E, P25685	-0.294 ± 0.089
DnaJ homolog subfamily B member 1 G14K, P25685	-0.13 ± 0.093
DnaJ homolog subfamily B member 1 F45V, P25685	-0.306 ± 0.061
DnaJ homolog subfamily B member 1 E43A, P25685	0.025 ± 0.13
DnaJ homolog subfamily B member 1 L11G, P25685	-0.773 ± 0.071
DnaJ homolog subfamily B member 1 A41K, P25685	-0.178 ± 0.092
DnaJ homolog subfamily B member 1 P58D, P25685	-0.332 ± 0.14
DnaJ homolog subfamily B member 1 A15K, P25685	-0.818 ± 0.096
DnaJ homolog subfamily B member 1 P58V, P25685	-0.191 ± 0.094
DnaJ homolog subfamily B member 1 D65T, P25685	-0.228 ± 0.11
DnaJ homolog subfamily B member 1 Q7G, P25685	-0.315 ± 0.21
DnaJ homolog subfamily B member 1 E18T, P25685	-0.081 ± 0.15
DnaJ homolog subfamily B member 1 P33Y, P25685	-0.245 ± 0.11
DnaJ homolog subfamily B member 1 P39S, P25685	-0.078 ± 0.069
DnaJ homolog subfamily B member 1 H32L, P25685	-0.025 ± 0.082
DnaJ homolog subfamily B member 1 E38M, P25685	-0.041 ± 0.1

Substance	abundance fitness
DnaJ homolog subfamily B member 1 Q27L, P25685	-0.121 ± 0.094
DnaJ homolog subfamily B member 1 I48S, P25685	-0.387 ± 0.074
DnaJ homolog subfamily B member 1 R61Y, P25685	-0.606 ± 0.13
DnaJ homolog subfamily B member 1 K60H, P25685	-0.171 ± 0.082
DnaJ homolog subfamily B member 1 I48E, P25685	-0.697 ± 0.095
DnaJ homolog subfamily B member 1 D17S, P25685	-0.094 ± 0.073
DnaJ homolog subfamily B member 1 Y24C, P25685	-0.504 ± 0.086
DnaJ homolog subfamily B member 1 G40Q, P25685	-0.103 ± 0.14
DnaJ homolog subfamily B member 1 A49T, P25685	0.094 ± 0.099
DnaJ homolog subfamily B member 1 R61N, P25685	-0.425 ± 0.1
DnaJ homolog subfamily B member 1 G10W, P25685	-0.704 ± 0.12
DnaJ homolog subfamily B member 1 P58W, P25685	-0.236 ± 0.085
DnaJ homolog subfamily B member 1 I63S, P25685	0.108 ± 0.068
DnaJ homolog subfamily B member 1 E47F, P25685	-0.277 ± 0.098
DnaJ homolog subfamily B member 1 Y5Q, P25685	-0.3 ± 0.15
DnaJ homolog subfamily B member 1 E42W, P25685	-0.122 ± 0.11
DnaJ homolog subfamily B member 1 K37I, P25685	-0.304 ± 0.12
DnaJ homolog subfamily B member 1 R13S, P25685	-0.182 ± 0.056
DnaJ homolog subfamily B member 1 E62M, P25685	-0.32 ± 0.11
DnaJ homolog subfamily B member 1 Y24A, P25685	-0.686 ± 0.24
DnaJ homolog subfamily B member 1 D65V, P25685	-0.262 ± 0.1
DnaJ homolog subfamily B member 1 K37M, P25685	-0.41 ± 0.18
DnaJ homolog subfamily B member 1 A12H, P25685	-0.175 ± 0.15
DnaJ homolog subfamily B member 1 E19N, P25685	-0.273 ± 0.11
DnaJ homolog subfamily B member 1 D4F, P25685	-0.608 ± 0.48
DnaJ homolog subfamily B member 1 S56E, P25685	-0.496 ± 0.079

Substance	abundance fitness
DnaJ homolog subfamily B member 1 R59G, P25685	-0.065 ± 0.084
DnaJ homolog subfamily B member 1 E38D, P25685	-0.287 ± 0.24
DnaJ homolog subfamily B member 1 E62R, P25685	-0.344 ± 0.095
DnaJ homolog subfamily B member 1 R26H, P25685	0.163 ± 0.11
DnaJ homolog subfamily B member 1 K60T, P25685	-0.298 ± 0.09
DnaJ homolog subfamily B member 1 I63Y, P25685	-0.236 ± 0.12
DnaJ homolog subfamily B member 1 S56K, P25685	-0.051 ± 0.17
DnaJ homolog subfamily B member 1 D65N, P25685	-0.222 ± 0.19
DnaJ homolog subfamily B member 1 Q7K, P25685	-0.014 ± 0.12
DnaJ homolog subfamily B member 1 Y5N, P25685	-0.392 ± 0.12
DnaJ homolog subfamily B member 1 E18L, P25685	-0.21 ± 0.071
DnaJ homolog subfamily B member 1 K21C, P25685	-0.089 ± 0.071
DnaJ homolog subfamily B member 1 D57R, P25685	-0.416 ± 0.072
DnaJ homolog subfamily B member 1 D4G, P25685	-0.398 ± 0.17
DnaJ homolog subfamily B member 1 T8V, P25685	-0.106 ± 0.058
DnaJ homolog subfamily B member 1 R59E, P25685	0.026 ± 0.099
DnaJ homolog subfamily B member 1 Y52T, P25685	-0.333 ± 0.089
DnaJ homolog subfamily B member 1 L29N, P25685	-0.572 ± 0.3
DnaJ homolog subfamily B member 1 P39Y, P25685	-0.222 ± 0.14
DnaJ homolog subfamily B member 1 L55P, P25685	-0.705 ± 0.088
DnaJ homolog subfamily B member 1 D65P, P25685	-0.164 ± 0.11
DnaJ homolog subfamily B member 1 R13C, P25685	-0.262 ± 0.12
DnaJ homolog subfamily B member 1 Y52Q, P25685	-0.306 ± 0.11
DnaJ homolog subfamily B member 1 E62P, P25685	-0.134 ± 0.079
DnaJ homolog subfamily B member 1 A12V, P25685	-0.145 ± 0.08
